In this data set the test system is AcrIIC5Smu.

For the substance “Nme1Cas9-Nme2Cas9PID chimera (Nme1Cas9 with its PID replaced by that of Nme2Cas9)”, the “in vitro DNA cleavage by the PID-swapped chimera in the presence of Acr (10-fold ratio; ~30x higher Cas9 concentration)” value was “No inhibition was observed by AcrIIC5Smu on this protein chimera”.

The values above are taken from patent US20240408238.
